assay: soluble fraction after stress (log2 fold change); higher = more stays soluble; pooled small domains, quantitative proteomics; conditions: stress: pH 4
Procedure, shortened: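 Following acid stress at pH 4, the amount of each small protein domain still soluble was measured in pooled custom libraries by high-throughput quantitative proteomics. Its fold change, on a log2 scale, is higher when more of the domain stayed soluble. This fold change is taken as a measure of aggregation propensity.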

Compared with “HMSGRIWTDNYGRTIEADVIKVNINRTVLLEFTDKKTKTVSFDTFISKDIQYLEYLLTRRNRGKL”, “HMSGRVPTADDIAVGMKVYVPRLGGTGTVVTEPVRDKVVIQVGSLRLHAEVAELLLPDEHGRIQVPR” is higher in “soluble fraction (log2)” value: -1.14 for the first, -0.127 for the second.

Going from “HMSGTGSYVALLRDPQGNVGKVVVKGSKGEQVLSQPQQAARLDGATPSYEVTGRQIAEDFGRALAV” to “HMSGTYIATVEAGSLDIYKSMTSNETIGKASRGDVFQILEDMGSGYARVSYNDVEGYMSIKTGDASIEEL”, the “soluble fraction (log2)” value falls from -0.198 to -1.83.

“HMSGVSESIEKKIQYLLLEKPLPLHDLIEAIEIGKEEDRLKVLRSLMDSDTVKIEDDLYHWNA” and “HMSGYSTLFTRMSREDAQAVVSLLQDDGIEYRYNDDTGTVQVPSATVDQTRAKLVSAGYPRS” are within 0.2 log units of each other in “soluble fraction (log2)” value: -0.393 for the first, -0.303 for the second.

Compared with “HMSHANAALTPRARLRLAKLIVEEHWPVATAAKMFMVSPPTARKWATRFRAEGPAGMADRSSRP”, “HMSHFRMLPSITEADAFLKSRSLPAGLEVREQVDAFLAQARQTLALAQEAPWLSKQEVLETLADEFVQTS” is lower in “soluble fraction (log2)” value: 0.123 for the first, -1.25 for the second.

Compared with “HMSHFSERLKSLRQQSSITQAKLADDLNVTKSLISMYESGQRLPSFEMLETIADYFNVPLSSLV”, “HMSHGFFTLQSDDLNLLRTVLEGHSSIGDIKIEGIQLVAYLKEPLNGAELNKILFEKGINLSYLVHRK” is lower in “soluble fraction (log2)” value: -0.51 for the first, -1.52 for the second.

Compared with “HMSHGFVHLKGAVQHPGIYPVKENTRWDEVVKAAGGLTAAADIQQVNLAKVASDQESLYVPEKGET”, “HMSHGSIYFSGKTGLKGSVDINGTVNSINKKIFLKPGNYNFLIKADGYKNLKGSFQISKGDKKFVELVLIP” is lower in “soluble fraction (log2)” value: 0.161 for the first, -0.0804 for the second.

First: HMSHGYVELKAENNDALISALENHTWFENIKLDPETNLVKAILTKPIEAENLNKMLFEKGIILSHLVKRK
Second: HMSHYDILEVDPKASATEIKQSFRKKSLQYHPDRNKSSDAHEYMTKITEAYNILGDKDKRRHYDMELKL
The “soluble fraction (log2)” value of the first is lower: -0.286 for the first, 0.172 for the second.

Going from “HMSHYEYKVGDRVNLLDYDDFGILYKEKDNFYNVVVYYNGEFVEVNVKRITLEVAAKELYPEGYDLSTLFV” to “HMSIASASVKEKIRDIVSSEPPQKPFSDAKIAEILAEDGIAIARRTVAKYREEIGIPTKSLRKR”, the “soluble fraction (log2)” value rises from -2.41 to 0.292.

“HMSIDNALLTLIGKTGTAQTVLRPSGKVVIGDEVYDAVTAGEFIDKGSAIVVTRVEATQLYVEASEA” and “HMSIELEISADGNNYRVSGLSDGEDVRVYSVSGVQVFSGKAQGGEVVIPADNWNKGIYVISAGGSSVKVL” are within 0.2 log units of each other in “soluble fraction (log2)” value: -0.343 for the first, -0.312 for the second.

First: HMSIGLEDLIEQKGVADTDLRPSGWINVGNQRIFVVTEGSYIDQNDNVIILSVDGNRVVVRKI
Second: HMSIGLEELVGSHGEAITDLRPAGQVSIAARRISAVSEGDFINKGDSVEVLSVEGYRVMVRKLET
The “soluble fraction (log2)” value of the first is lower: -0.941 for the first, -0.4 for the second.

Going from “HMSIITLFQEINAAVAEATGGRVPESVVQNFILGKDVVIPEDVKEIIISKLKAFATDIEGMLEESGFD” to “HMSILDEAEFKKIESALLDFITNNIFTVKELLQASRGIKQDKFWKVFQFLQSERKVVVNELGYIEL”, the “soluble fraction (log2)” value rises from -2.59 to -0.513.

Compared with “HMSILSIGLERGMKKGVAWGIAKSILDILEETGPVSEKTREMIVTETDAERLSAWVKKAARSNSEEDFLSK”, “HMSILSRREHEIMQWVKGGKTNIEIAQILGISARTVRNHLQNVFRKLDVINRAQAVFEVERRR” is higher in “soluble fraction (log2)” value: -1.21 for the first, -0.639 for the second.

Compared with “HMSIMNEQIREILNQQVTKTSKIQQLLLLGLTRRQVADLVTNGNYGFVQNVYRNMLDAGIFTP”, “HMSIMNLSEKIVVLRKSNGMSQEELAEKLYVSRQAVSRWEMGTAVPDSTNILQLGKLFHVTTDYLLNDEYE” is higher in “soluble fraction (log2)” value: -0.487 for the first, -0.232 for the second.

First: HMSINQIADKGYITRLIDNNANIKDVLYYDASSRILAIEDPKYMFYLKNTDWNQFAKEMGFKLE
Second: HMSINTLEVHSLKALENLAESPLLISFSYENEEYNYRLASSDVSLLKKISSNYSDDSDIKGLRFIS
The “soluble fraction (log2)” value of the first is lower: -0.556 for the first, -0.316 for the second.

Going from “HMSIQQEATGNRIRELLLNNGYTVKDIQEVMGFENPQAVYKWLSGKSLPNLDNLLILSKVLHTSIEDILV” to “HMSISSIDFENLKSDELSDAQITQIYRQAQEQGLSIDELSSLAIARGMSPTEVAKLRSRFNSIP”, the “soluble fraction (log2)” value rises from -1.09 to 0.00293.

“HMSIVVPDLRGKTLEEARAILKEADLDFEINDSTFSKTARPGTIRDVVPSPGSRVKAGRILFISINGF” and “HMSIYQYFNISEINSIDDLKKQYFKLAKKYHPDAGGDKVSFQELQNEYEQLTKKILSGAELNADELKTE” are within 0.2 log units of each other in “soluble fraction (log2)” value: -0.0618 for the first, -0.163 for the second.

Going from “HMSKASLFFLFNHKDELYIVDNNHVQDVPKPRELIRRFSTIEQIREHALHLGLPIANDTARE” to “HMSKEGLASLLEDINGLGAIRRKTLIDHFGSVAKIRGARPEEIAALPGMGRKIAEHILASLRED”, the “soluble fraction (log2)” value rises from -0.0573 to 0.418.

Going from “HMSKEKQILQLLQHGYSQRRIADTLSVSRNTVAKVAKAAIEHPVSSDSLDSIDELELHQKLFPEEVLI” to “HMSKGKNEVIAYLKAHNDHRLTVAEILDGLKEEGISINRSTIYRNLDKLVENGDILAFKGKDSESAFYQYS”, the “soluble fraction (log2)” value falls from -0.184 to -0.643.

Compared with “HMSKHLWNKVLPKVTTANITNLINQAIRKGEWRMDNKGVVHIIWRYRGKIIEVTGYLKDKVFNVGNAWVR”, “HMSKITNALLMMKLLSNGKVYSVKELSEELGVTERMVRNYKEQLEMSGYIIESFKGPGGGYFINKN” is higher in “soluble fraction (log2)” value: -0.134 for the first, 0.207 for the second.

Compared with “HMSKKAIVINLLKRPDGASLKDIMQATYWQAHSVRGFISGSLTKKMGLNVESFKRPDGERAYRIN”, “HMSKLIDQELINFFKNQIESKSFRYGVSIEDSYEEIKSNQIKFYGEQEDKLKAIDNAFIELKRERAGIR” is lower in “soluble fraction (log2)” value: 0.22 for the first, -0.293 for the second.

First: HMSKNDLAGDEADVYKLLSVETGKPISDLVNRLPFGKSKTREILNTLAEKGFVYISGSGRGTKYHR
Second: HMSKNTFIGNIDDKELYVGSGRYGPFMLYDGKFTNITRYLSDESKELTDITIDDYSKIVNNARPK
The “soluble fraction (log2)” value of the first is higher: -0.403 for the first, -1.5 for the second.

Compared with “HMSKNVTMPNLVGYSMRQAKAELLSRGLHLGKLIYVNDIATNNVISQLYRNAEIEPGVKIESESYVDLVVG”, “HMSKPTLTDELLTLDLFEEIIKAKENAKGANKRFSLVGFLESKYIVDQEMLPKVNVKVTEYYNLTREN” is lower in “soluble fraction (log2)” value: -0.631 for the first, -1.8 for the second.

“HMSKPVVWIVGDSTVSAFTDNYYYPRYGWGTQIDKYLDGTFEVKNIALSGRSSTSYTADKEYGELIAG” and “HMSKRIFPNEFQRNSPDAMVMLDKMNLSRINVDPLTKSLTLNGGGSVKTLLNGREVSAVEIAALSP” are within 0.2 log units of each other in “soluble fraction (log2)” value: 0.0502 for the first, 0.156 for the second.

First: HMSKSENLYSAARELIPGGVNSPVRAFTGVGGTPLFIEKADGAYLYDVDGKAYIDYVGSWGPMVLGHNHP
Second: HMSKSIEEIYDEAIRSLANEEYDSAKKLFSYLIDNFSDPEKLPLSLFWLGEIEFSSSNFDQSKIHYIE
The “soluble fraction (log2)” value of the first is higher: -0.279 for the first, -1 for the second.

Going from “HMSKSIGEALKEERRSLGLTQEQFIKGIISESFYSKVERGKNEIVAVDLLKILAANNISEEEFLSKLN” to “HMSKSPELMEKIKEFAEGYFRENGETPSNKTIAGAMGMGRSTVYYYLVDMAQRGMISYENGVISTEKIRKL”, the “soluble fraction (log2)” value falls from -0.168 to -0.65.

Going from “HMSKTDYKILYSDLNREDAKQLSLLLEDKKIPYQTSEDGKTIKIPEGMVNRFRMEVATMGVNF” to “HMSKTKDVLVQLMAERGLTQSDIARALSVRPQAVQQWVSGKTRPTGKNLEALAEFLQLPPAVIVHGP”, the “soluble fraction (log2)” value rises from -0.014 to 0.344.

First: HMSKTQVKSVLDDIKGIGVVRRKALIKHFNDIEAIKAAQLAELKAVAGMDSKSAQSVYDFFHK
Second: HMSKYERVYTGSEINVNHLKSQLEDAGISSVVRNDHESAIRAGFGSDYDRGVLLFVEKDNLLRAKHIIEKT
The “soluble fraction (log2)” value of the first is higher: no less than 0.43 for the first, 0.0771 for the second.

“HMSKYLAFTVKKNDELLPFIEKALNGISHTKAKAILANGGAMVNKNTITQYNYPLTPGMTVEISRH” and “HMSLDLNENEKTIFDIIQNKKTIRLSELKIEAGLSNKGWDKAMKSLTKQGLAKVVKTEDQLTVKLL” are within 0.2 log units of each other in “soluble fraction (log2)” value: 0.187 for the first, 0.0483 for the second.

Compared with “HMSLEDNEVIQRMKVILDRFDEETAVDRTTAFKAVLDHIGKMDAESKTLEHMAEMLEALLDKVLEE”, “HMSLGPNAYGKPATALNILRETVMGKELFDHAFKTYSKRWMFKHPSPEDFFRTMEDASAVDLDWFWR” is higher in “soluble fraction (log2)” value: -0.371 for the first, 0.22 for the second.

“HMSLGSQEYSIGFRNGDSTYHYIDKALKELAYEGVIDELSTQWFGSSRAVDFPSQKDALSELGYIA” and “HMSLGSSLFHARKKSGLTQEAVAEKLGVSRQTISKWETNETLPDIRQSKGLAMLYHMTLDELIE” are within 0.2 log units of each other in “soluble fraction (log2)” value: 0.22 for the first, 0.138 for the second.

Compared with “HMSLGTDVVPDFTGKGIKEAKTEFAAYSEGELYIIGEGEKVKEQFPLPGEKVNKNSDLILYV”, “HMSLIDLLQLNRKSKKLTLMNLVEMTGLSYGKVYRIFNGGIDKPTPDSLKLLAKALQLDYSYLFHKAGYL” is higher in “soluble fraction (log2)” value: 0.0276 for the first, 0.266 for the second.

First: HMSLIEQKSQIPLVQGGQRVDKVAAALFTDFSRAELTGWIQQGALTLDGAVVKPKYKVLGGEWLYLRASQS
Second: HMSLNIIEITAKKEINELKSFNIIYFNFDKNNSIYEYKISEREKKEILEIEKIIKNSDNVTNYEIRYSF
The “soluble fraction (log2)” value of the first is higher: -0.213 for the first, -0.685 for the second.

Compared with “HMSLNQRIKEARIKMGYTQEQLGNLIGVAKTTISGYEKNREPDAATIGLIIDALKVDANFLFQ”, “HMSLNSELIARIENLIASIEDKRSWGYGFAESVLGQVQAGATLSPRQLEIIAKLEKENSYSVQLERQ” is higher in “soluble fraction (log2)” value: -1.2 for the first, -0.479 for the second.

Going from “HMSLPALSAEEQKIVDALHGTPKGVDDIIAETGISSGALLRSLTMLELKKVIVRLPGNRIAPK” to “HMSLPDREVVLETSSDSYYHFKTDHFQRQITYSAVRNAPVRLVTISAERAFEVISLNRRGERPEHLE”, the “soluble fraction (log2)” value falls from 0.113 to -1.77.

First: HMSLQEISDLISQAERADQEQLKEVLKQLHQVESGNQPMSKGFLSSALSTLNKYPALITSIGQLLFKLAT
Second: HMSLSEGVSADVVADVQARLMELGYMDEDDPDGNFSESTRIAVEHFQQQAGLPVTGTVDKATLDALNSPD
The “soluble fraction (log2)” value of the first is lower: -0.723 for the first, -0.231 for the second.

Going from “HMSLSQLGLTPRQTDVLALLLKGQPNKLIARELGLSVETVKDHVAAVLRALNVSSRTQAVIAVSQMLQ” to “HMSLSVEESYKLLDISPSAGDEEITKKFRLLALKYHPDKNRSKIEWANNIMSRLNQAYSVIMSSRFESNAE”, the “soluble fraction (log2)” value rises from -0.533 to 0.211.

Going from “HMSLTTKSVEETLGITRQTLHNWIKEGLLPAPKKDFRNWYIWSDEDLENLRNIIEQKTLINNKKQAV” to “HMSMANKKDFILDTAQKLFMEQGFDQTSISQILEATQIARGTLYYYFSSKEEIMDAIIERTIEQ”, the “soluble fraction (log2)” value falls from -0.0603 to -1.81.

First: HMSMDYYNILGVNRNASTGEIKKAYKRASMQHHPDRGGNSDEFIKVQQAYDTLSDNHKRQAYDNP
Second: HMSMDYYSTLGVSKTASASDIKKAYRKLAMANHPDKGGDSAKFAKITEAYDVLKDPQKRNNYDQFGTA
The “soluble fraction (log2)” value of the first is lower: 0.0506 for the first, 0.399 for the second.

— the domain aggregation screens of Martell et al. (2025)
